From paper PMC8392704, “Small Hexokinase 1 Peptide against Toxic SOD1 G93A Mitochondrial Accumulation in ALS Rescues the ATP-Related Respiration” (Biomedicines, 2021)
Primed or numbered codes have the meaning given here. Where no end group is shown, it is not given here. FITC′ = not defined here

Biological target: T1, Recombinant 6xHis-tagged human VDAC1 (Voltage-Dependent Anion Channel 1) (human, UniProt P21796 1-283)
T1 construct: Voltage-Dependent Anion selective Channel 1 (VDAC1), human; PDB 6G6U is the cited crystal structure of human VDAC1, used only for docking; also called mitochondrial porin; porin; not shown: His6, C-terminal, kept
Test: pull-down + SEC; 1 uM C-terminal His-tagged VDAC1 immobilised on Ni2+-Sepharose beads, incubated with 1 uM NHK1-FITC for 24 h; unbound peptide washed off; eluted with 200 mM imidazole; eluate loaded on Superdex200 and the complex detected by FSEC (ex/em 494/518 nm), with the VDAC1 profile at 280 nm
Settings: both partners purified

T1 sequence (P21796 whole entry): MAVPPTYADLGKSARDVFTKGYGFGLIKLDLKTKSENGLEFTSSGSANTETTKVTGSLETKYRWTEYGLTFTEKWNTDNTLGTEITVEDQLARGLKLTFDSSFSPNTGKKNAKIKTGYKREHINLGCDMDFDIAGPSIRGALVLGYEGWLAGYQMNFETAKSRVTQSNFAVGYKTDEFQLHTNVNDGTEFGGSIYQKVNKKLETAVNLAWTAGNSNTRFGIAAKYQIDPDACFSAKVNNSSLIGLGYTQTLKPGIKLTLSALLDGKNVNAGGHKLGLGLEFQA

binding result: binds
B1: NHK1-FITC peptide (FITC-labeled NHK1, residues 2-12 of human HK1) (peptide)
peptide: IAAQLLAYYFT-{FITC′}
notes: hexokinase 1 (HK1), human, amino acids 2-12; also called FITC-NHK1; NHKI; source: synthetic peptide, produced by Proteogenix
